Paper PMC8002388

What was measured:
[1] = molecular target: light-activated rhodopsin in rod outer segments (ROS) (UniProt P02699)
[2] = molecular target: light-activated rhodopsin in rod outer segments (ROS) (UniProt P02699); remark: listed apart in the source

UniProt P02699, sequence (P02699 whole entry): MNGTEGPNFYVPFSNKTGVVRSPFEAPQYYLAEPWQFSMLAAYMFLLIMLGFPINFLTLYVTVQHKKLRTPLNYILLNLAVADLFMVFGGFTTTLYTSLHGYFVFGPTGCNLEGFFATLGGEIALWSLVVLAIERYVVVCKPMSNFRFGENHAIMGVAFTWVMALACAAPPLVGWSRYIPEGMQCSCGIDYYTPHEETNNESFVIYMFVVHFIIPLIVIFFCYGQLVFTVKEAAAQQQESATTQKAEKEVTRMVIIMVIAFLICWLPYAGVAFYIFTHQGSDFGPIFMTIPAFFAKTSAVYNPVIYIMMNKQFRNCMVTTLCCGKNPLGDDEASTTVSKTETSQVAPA

Substance	normalized Vmax of rhodopsin (ROS) phosphorylation when [ATP] is varied [1] [A.U.]	Km for rhodopsin, phosphorylation of light-activated rhodopsin in ROS (50 nM-5 µM) by 20 nM GRK2 with 150 nM human Gβ1γ2 and 5 µM ATP [2] [nM]
C-terminally H6-tagged bovine GRK2 E532A (S670A background) (from UniProt P21146 1-689) (enzyme)	0.8	140
C-terminally H6-tagged bovine GRK2 L536N (S670A background) (from UniProt P21146 1-689) (enzyme)	1.2	180
C-terminally H6-tagged bovine GRK2 L547N (S670A background) (from UniProt P21146 1-689) (enzyme)	0.8	170
C-terminally H6-tagged bovine GRK2 L33N (S670A background) (from UniProt P21146 1-689) (enzyme)	1	360

Second part, the substance after the results:

normalized Vmax of rhodopsin (ROS) phosphorylation when [ATP] is varied [1] [A.U.]	Km for rhodopsin, phosphorylation of light-activated rhodopsin in ROS (50 nM-5 µM) by 20 nM GRK2 with 150 nM human Gβ1γ2 and 5 µM ATP [2] [nM]	Substance
1.3	240	C-terminally H6-tagged bovine GRK2, wild type (S670A background) (from UniProt P21146 1-689) (enzyme)
0.9	130	C-terminally H6-tagged bovine GRK2 E36A (S670A background) (from UniProt P21146 1-689) (enzyme)
